This is an account of results in US20230374114A1 (Dana-Farber, published 2023).

Changes are numbered by the printed parent chain.

The experiment concerns the target D614G Spike (SARS-CoV-2, UniProt P0DTC2 16-1213).

B1: Ab_17 (scFv, V domains shown)
VH: QVQLVQSGGGVVQPGRSLRLSCAASGFTFDDYAMHWVRQVPGKGLEWVSGIDWNSGVIGYADSVKGRFTISRDNVKNSLYLQMNSLRTEDSALYYCAKDIGPGGSGSYYAFDIWGQGTTVTVSS
VL: QSALTQPASVSGSPGQSITISCTGTSSDVGGSKYVSWYQQHPGKAPKVMIYDVTKRPSGVPDRFSGSKSGNTASLTISGLQAEDEADYYCAAWDDSLNGVVFGGGTKLTVL
Usually Kd stands for the equilibrium constant for the complex coming apart. Read a high Kd as lower affinity. B1: the equilibrium dissociation constant (Kd) is 6.8 pM.

B2: Ab 26 (scFv, V domains shown)
VH: QVQLVQSGGGLVQPGRSLRLSCAASGFTFDDYAMHWVRQVPGKGLEWVSGIDWNSGVIGYADSVKGRFTISRDNAKNSLYLQMNSLRAEDTALYYCAKDAYSYGFLGAFDIWGQGTMVTVSS
VL: LPVLTQPPSVSVAPGQTASITCGGDNIRTKGVHWYQQKPGQAPLLVIYYASDRPSGIPERFSGSSSGNTATLTISRVEAGDEADYYCQVWDSSSDLVVFGGGTTLTVL
B2: the dissociation constant Kd was 9.97 pM. This Kd and that of the molecule before are within 1.5-fold of each other.

B3: Ab 27 (scFv, V domains shown)
VH: QVQLVQSGTEVKKPGASVKVSCKASGYSFTGSHLHWVRQAPGQGLEWMGWINPDSGVINYAQKFQGRVTLTRDTSISTAYMELSGLRSDDTAVYYCARDKAIGYVWALDYWGQGTLVTVSS
VL: QSALTQPPSVSGSPGQSVTISCTGTSSDVGTYNRVSWYQQPPGKAPKLMIYEVSNRPSGVSNRFSGSKSGNTASLTISGLQAEDEADYYCSSYTRTFTYVFGTGTKVTVL
B3 showed an equilibrium dissociation constant (Kd) of 7.53 pM.

B4: Ab 23 (scFv, V domains shown)
VH: EVQLVQSGAEVKKPGSSVKVSCRSSGGTFSTYGITWVRQAPGQGLEWMGRIIPSLGIPNYAQKFQGRVTITADTSVSTAWMELSSLESDDTAIYYCARENIDLATNDFWGQGTLVTVSS
VL: QSALTQPPSASGSPGQSVTISCTGTSRDIGAYGYVSWYQQVPGKAPKLIIYEVRNRPSGVSSRFSGSKSGNTASLTISGLQAEDEADYYCSSYTSSSTLDVVFGGGTKLTVL
As to B4, binding was put at a Kd of 8.82 pM.

B5: Ab_19 (scFv, V domains shown)
VH: EVQLVESGAEVKKPGESLKISCKGSGYSFTSYWIGWVRQMPGKGLEWMGIIYPGDSDTRYSPSFQGQVTISADKSISTAYLQWSSLKASDTAMYYCARRGDLDAFDIWGQGTMVTVSS
VL: QPGLTQPPAASGTPGQRVTVSCSGASANIGSNAVSWFKQFPETAPRLLISGNTHRPSGVPDRVSGSKSGTSASLTISGLQSDDEADYYCAAWDDSLNGYVFGSGTKVTVL
Molecule B5 returned an equilibrium dissociation constant (Kd) of 10.9 pM.

B6: S1-RBD-R3-T1-C7 Ab (Ab 29) (scFv, V domains shown)
VH: QVQLQQSGPGLVKPSQTLSLTCAISGDSVSSYSDAWNWIRQSPSRGLEWLGRTYYRSKWYNDYAVSVKSRITINPDTSKNQFSLQLSSVTPEDTAVYYCAREIVATTPFRNYYYGMDVWGQGTTVTVSS
VL: NFMLTQPHSVSESPGNTVTISCTRTSGSIASNYVQWYQQRPGSSPTTVIFQDKLRPSGVPDRFSGSIDSSSNSASLTISGLKTEDEADYYCQSYDSSSLWVFGGGTKLTVL
B6 gave a dissociation constant Kd of 1.04 pM.

B7: Ab_18 (scFv, V domains shown)
VH: EVQLVQSGGGVVQPGRSLRVSCAASGFSFSRYGMHWVRQAPGKGLEWVAFIRHDGSKKYYADSVEGRFTISRDNSRNTVSLEMNSLRGEDTAVYYCAKDGRLEAALDDWGQGTLVTVSS
VL: NFMLTQPHSMSGSAGKTVTVSCIRSSGSIANNFVQWYQQRPGSAPTTVIYEDNQRPSGVPDRFSGSIDSSSNSASLTISGLKTEDEADYYCQSYDSSNLVFGGGTRLTVL
Regarding B7, binding was characterised by a dissociation constant (Kd) of 6.33 pM.

B8: Ab 20 (scFv, V domains shown)
VH: QVQLVQSGGGSVKPGGSLRLSCAASGYRLSDYYMHWVRQAPGKGLEWVANIKQDGSEKYYVDSVKGRFTISRDNAKNSLYLQMNSLRAEDTAVYYCARVRGWSRGYFDYWGQGTLVTVSS
VL: NFMLTQPHSVSESPGKTVTISCTGSSGSIASNYVQWYQQRPGSAPTTVIYEDNQRPSGVPDRFSGSIDSSSNSASLLISGLKTEDEADYYCQSYDSSNHWVFGGGTKLTVL
In the case of B8, binding was characterised by a dissociation constant (Kd) of 8.64 pM.

B9: Ab 25 (scFv, V domains shown)
VH: QVQLVQSGGGLVQPGGSLRLSCAASGFTFSSYWMSWVRQAPGKGLEWVANIKQDGSEKYYVDSVKGRFTISRDNAKNSLYLQMNSLRAEDTAVYYCARGFYYYGAFDIWGQGTTVTVSS
VL: B8 VL with D68G, L77T
Molecule B9 registered a Kd of 8.56 pM. This Kd and that of the molecule before are within 1.5-fold of each other.

B10: Ab 28 (scFv, V domains shown)
VH: QVTLKESGPGLVNPSETLSLTCTVSGASISNSFWSWIRQSPGKGLEWIGYTSYSGNSIYNPSLKSRLTMSIDTSKNQLSLNLRSLTAADTAVYYCARREWIKGHFDYWGQGTLVTVSS
VL: B8 VL with S26G, L77T, H99P, W100V
Turning to B10, the dissociation constant Kd stood at 9.41 pM.

B11: S1-RBD-R3-T1-B12 Ab (Ab_31) (scFv, V domains shown)
VH: QVQLVQSGAEVKKPGSSVKVSCKASGGTFSSYTISWVRQAPGQGLEWMGGIIPILGTPNYAQKFQDRVAITADKSTSTAYMELSSLRSEDTAVYYCAVGSGWYSGFDYWGQGTLVTVSS
VL: B8 VL with N53S, L77T, Y94F, D95H, S96N, H99P, W100V, V101I
In turn, B11 registered a dissociation constant Kd of 9.03 pM.

B12: Ab 21 (scFv, V domains shown)
VH: QVQLVQSGGGLVQPGGSLRLSCATSGFTFDDYAMHWVRQAPGKGLEWVSGISWNSGSIGYVDSVKGRFTISRDNRNNKVYLQMNNLRAEDTAVYYCARDWWGSIDHWGLGTLVTVSS
VL: QSALTQPRSVSGSPGQSVTISCTGTSSDVGGYDYVSWYQQHPGKAPKLIIYDVSKRPSGVPDRFSGSKSGNTASLTVSGLQAEDEADYYCSSYTSSSPVVFGGGTKLTVL
On to B12, for which binding was put at a Kd of 8 pM. The Kd values of the last two molecules are within 1.5-fold of each other.

B13: Ab_16 (scFv, V domains shown)
VH: QVQLVQSGGGVVQPGRSLRLSCAASGFTFSNYGMHWVRQAPGKGLEWVALIWERGSKKDYADSVKGRFTVSRDNSKNTLYLQMNSLRPEDTAVYFCAREGISMTGAEYFQHWGQGTLVTVSS
VL: QSVLTQPPSVSGSPGQRVTMSCTGSSSNIGAGYDVHWYQQVPGAAPRLLIYGTNNRPSGVPDRFSGSKSGTSASLTITGLQAEDEADYYCQSYDNSLTDPYVFGTGTKVTVL
In turn, B13 showed a Kd of 8.35 pM.

B14: RBD-R3-E1-A5 Ab (Ab_30) (scFv, V domains shown)
VH: QVQLVQSGGGVVQPGKSLRLSCTASGFTFSDFPIHWVRQAPGKGLEWVGVISYDGNIKYYGDSVKGRFTISRDNAKNSLYLQMNSLRVEDTAVYYCARGGSSFDIWGQGTTVTVSS
VL: SYELTQPPSVSEAPRQRVTISCSGSTSNIGNNAVSWYQHLPGKAPKLLIYYNERLPSGVSDRFSGSKSGTSASLAISGLRSEDEADYYCAAWDDSLSGHVVFGGGTKLTVL
As to B14, binding was characterised by a dissociation constant (Kd) of 7.43 pM.

B15: Ab_14 (scFv, V domains shown)
VH: QVQLQQSGPGLVKPSQTLSLTCAISGDSVSSNSAAWNWIRQSPARGLEWLGRTYYRSRWYNDYAISMKSRITINPDTSKNQFSLQLESVTPEDTAVYYCAREIRGFDYWGQGTLVTVSS
VL: QSVLTQPPSASGSPGQSVTISCTGTSSDVGAYNFVSWYQHHPGKAPKLIIYDFNKRPSGVPDRFSGSKSGNTASLTVSGLQADDEADYYCSSYAGSNNFDVVFGGGTKLTVL
As to B15, binding was characterised by a dissociation constant (Kd) of 8.12 pM.
